Measured values as given in paper doi:10.1101/738179, “Rad51 Interaction Analysis Reveals a Functional Interplay Among Recombination Auxiliary Factors” (bioRxiv, 2019).

B1: Rad51 (natural protein, S. pombe, UniProt P36601 1-365, looked up)
chain: MADTEVEMQVSAADTNNNENGQAQSNYEYDVNVQDEEDEAAAGPMPLQMLEGNGITASDIKKIHEAGYYTVESIAYTPKRQLLLIKGISEAKADKLLGEASKLVPMGFTTATEYHIRRSELITITTGSKQLDTLLQGGVETGSITELFGEFRTGKSQICHTLAVTCQLPIDMGGGEGKCLYIDTEGTFRPVRLLAVADRYGLNGEEVLDNVAYARAYNADHQLELLQQAANMMSESRFSLLVVDSCTALYRTDFSGRGELSARQMHLARFMRTLQRLADEFGIAVVITNQVVAQVDGISFNPDPKKPIGGNILAHSSTTRLSLRKGRGEQRICKIYDSPCLPESEAIFAINSDGVGDPKEIIAPV
notes: Rad51, RecA-family recombinase of S. pombe; Covalently attached to Affi-gel 15 in the pull-down; Multimer in solution by SEC; also called Affi-Rad51
B2: Swi5-Sfr1 (wild type, full-length Sfr1) (complex, S. pombe)
chain 1: MEKSQLESRVHLLEQQKEQLESSLQDALAKLKNRDAKQTVQKHIDLLHTYNEIRDIALGMIGKVAEHEKCTSVELFDRFGVNGSE
chain 2: MSQTINSELNENATSQCKEDLKVSLSESDLRDSQGQLGIENPPKCNNSGNHSDNLGFIEQSETVHPENEKALTPDLRDTKIHTSLPITTPFSKKRAREAKNILLKPFKSPLRQTASPQVADTNLKPSLAVTNLNSDETNTSSEPVTSPLRTTPNSIKRQKRLFKSPISNCLNPKSDPEITQLLSRRLKLEKEVRNLQEQLITAETARKVEAKNEDKDLQTLIQKWKNAAQQAAEVLFKPMAERIRLAGGVTQSFRIEEGENKGQIQEVRTEFTMSMFLNQFGVPVHLMSFDEENGDWKS

How the values were obtained:
[1] = molecular target: B2; assay: pull-down; Rad51 covalently attached to Affi-gel 15 (2 µg protein/µL gel); Swi5-Sfr1 variant in Affi-gel buffer (25 mM HEPES-KOH pH 7.5, 150 mM NaCl, 3.5 mM MgCl2, 0.5 mM DTT, 0.05 µg/µL BSA, 10% glycerol, 0.05% igepal CA-630); 30 °C 30 min; Sfr1 detected by immunoblot; Affi-BSA as control; details: both partners purified
Rad51 = molecular target: B1; assay: cell-based or functional assay

binding result [1]	Rad51-dependent ATP turnover, fold increase at a Swi5-Sfr1:Rad51 ratio of 1:20 (0.25 µM Swi5-Sfr1, 5 µM Rad51) (Rad51)	Binder
binds	–	B1
–	1.85 fold	B2
